Test results: the supplement of paper PMC10567573

B1: MMP1 (parent)
chain: FHGTRQYKFDPKTKRILTLQKANS
B2: SNX8 (parent)
chain: LHQETQLIHVYLPLTSHILRAFVN

Variants of: B1
Test: protein stability index of a GFP-peptide fusion (GPS, HEK-293T) (PSI 1-6); higher = more stable
Conditions: c terminus: a fixed tail appended
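Also: lentivirally expressed fusions sorted by FACS into six bins by GFP to DsRed ratio, PSI derived from sequencing read proportions per bin multiplied by bin number.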

Protein stability index of substitutions, site by site:
L17: E 1.59; F 1.56; Y 1.95; G 2.38; I 1.78; D 1.91; T 2.2; M 1.53; K 2.1; R 2.56; Q 2.19; A 1.92; P 1.57; C 2.02; W 1.88; N 1.6; S 1.8; V 1.73; H 2.17
T18: P 2.18; G 1.86; C 1.55; R 1.68; H 1.39; I 1.61; M 1.74; V 1.04; Q 1.73; A 2.05; S 1.9; K 1.34; Y 1.51; W 2.4; L 1.58; F 1.67; E 2.07; N 2.15; D 3.38
L19: C 1.63; H 1.59; F 1.68; S 2.03; Q 1.87; A 1.54; E 1.73; D 2.49; M 1.91; P 1.87; K 2.05; T 2.2; G 2.94; W 2.61; R 1.44; N 1.94; V 2.03; I 2.05; Y 2.34
I16: R 1.36; Q 1.94; K 1.67; C 1.68; P 1.93; W 1.95; H 1.42; D 2.5; L 2.21; A 2.8; G 1.64; T 1.91; Y 1.35; N 1.84; S 1.7; F 1.64; V 2.25; E 1.93; M 1.64
N23: S 1.93; Y 2.1; V 2.08; T 1.29; E 1.91; F 1.25; I 2.87; R 2.38; W 1.51; H 1.88; K 3.21; G 1.39; M 1.8; L 2.08; D 2.46; P 1.67; C 2.32; Q 1.85; A 1.37
K14: M 2.16; F 1.98; R 1.85; T 1.61; Y 1.36; E 1.85; H 1.54; G 1.54; L 1.99; D 2.19; W 1.95; V 2.53; S 1.69; N 2.14; Q 1.82; I 1.92; P 2.1; C 2.18; A 2.68
K12: W 3.25; T 1.73; D 1.53; Y 3.08; I 1.95; S 1.57; P 2.26; C 1.86; M 1.7; N 2.12; H 2.21; Q 2.04; R 2.44; V 1.55; G 1.47; L 1.91; A 1.87; E 2.4; F 2.27
R15: N 1.73; A 2.51; Y 1.57; E 1.83; G 1.31; F 1.3; C 1.28; M 1.47; Q 2.16; H 1.86; L 2.2; W 1.69; D 1.86; P 2.29; V 1.77; S 1.91; T 1.83; I 2.05; K 1.66
Q20: Y 1.66; L 2.12; I 1.78; A 2.46; N 1.73; S 2.28; G 2.01; K 1.84; P 2.06; W 2.77; E 2.03; C 2.16; H 2.09; M 1.45; F 1.91; R 2.37; D 1.88; V 1.75; T 1.8
K21: P 2.04; V 1.6; G 1.11; S 1.81; T 1.54; Y 2.43; Q 1.9; L 1.32; E 2.86; C 2.53; H 2.33; N 2.27; M 1.54; R 1.82; I 1.78; D 1.88; A 2.02; F 2.14
T13: R 1.85; S 1.99; F 1.68; L 2.09; Q 2.37; E 1.69; K 2; I 1.8; A 2.3; C 2.66; H 2.21; W 2.07; D 2.33; P 1.8; N 1.96; Y 1.65; M 1.67; V 1.6; G 1.62
D10: L 1.5; F 2.45; N 1.22; V 1.42; C 1.49; W 1.77; T 2.03; A 1.88; M 2.18; P 1.72; G 2.15; S 2.36; I 2.14; R 1.62; Y 2.01; K 1.83; Q 2.46; E 1.7; H 1.95
F9: W 2.27; Y 1.75; T 1.55; S 2.08; V 1.58
P11: A 2.31; E 1.67; G 1.66; L 1.52; T 2.43; N 1.93; D 2.01; K 1.83; H 1.98; I 2.57; S 1.78; F 1.07; C 1.79; W 2.19; R 1.88; V 1.8; Q 2.29; M 1.83; Y 2.13
A22: V 1.45; I 1.38; P 2.19; Q 2.06; F 1.77; G 1.73; C 2.07; E 2.92; T 1.68; D 1.48; M 1.83; N 2.09; R 1.65; H 2.49; Y 2.49; K 1.99; L 1.52; S 2.51; W 1.6
S24: L 1.76; D 1.77; V 1.79; G 2.03; H 2.58; F 1.59; A 1.6; C 2.01; K 1.84; E 1.79; P 2.08; Q 2.07; I 2.09; T 1.65; Y 1.67; R 1.3; N 2.16; M 1.85

Variants of: B2
Test: as above
Conditions: c terminus: a fixed tail appended

Protein stability index of substitutions, site by site:
E4: A 1.83; C 1.83
H2: P 2.04; Q 2.5; Y 2.96; T 1.68; G 2.72; F 2.04; D 3.62; W 3.21; N 2.5; S 2.03; V 2.6; L 1.83; R 1.82
L1: H 1.85; F 3.82; Q 2.18; R 2.06; P 3.01; V 2.64; K 3.1; I 2.88; T 3.62; E 3.18; N 2.75; A 2.75; D 3.07
Q3: A 3.04; P 2.31; L 2.24; S 3.32; Y 3.12; N 2.96; K 4.06; E 2.55; G 2.67; M 2.15; C 2.06; H 2.62; R 2.48; I 3.42; V 2.47; F 3.79; D 2.8; W 2.73
